Reference: patent US20140080757A1 (ZEALAND PHARMA A S, published 2014)
One block for each binder: values may come before it. Numbered stars: 1 amine (or outer) side, 2 acyl side, 3 side chain; on linkers, the order of the positions; unused ones are H or OH. Side chains are listed from the residue outwards. * marks the point of attachment. γGlu = O=C(O)[C@H](CCC(=O)[*:2])N[*:1]; Palmitoyl = CCCCCCCCCCCCCCCC(=O)*

Key:
Assay in all cases: cell-based or functional assay
[1] = target: endogenous glucagon receptor of primary rat hepatocytes (rat, UniProt P30082 27-485)
[2] = target: T1, endogenous GLP-1 receptor of a murine insulinoma cell line (murine, UniProt O35659 22-463)
T1 sequence (looked up): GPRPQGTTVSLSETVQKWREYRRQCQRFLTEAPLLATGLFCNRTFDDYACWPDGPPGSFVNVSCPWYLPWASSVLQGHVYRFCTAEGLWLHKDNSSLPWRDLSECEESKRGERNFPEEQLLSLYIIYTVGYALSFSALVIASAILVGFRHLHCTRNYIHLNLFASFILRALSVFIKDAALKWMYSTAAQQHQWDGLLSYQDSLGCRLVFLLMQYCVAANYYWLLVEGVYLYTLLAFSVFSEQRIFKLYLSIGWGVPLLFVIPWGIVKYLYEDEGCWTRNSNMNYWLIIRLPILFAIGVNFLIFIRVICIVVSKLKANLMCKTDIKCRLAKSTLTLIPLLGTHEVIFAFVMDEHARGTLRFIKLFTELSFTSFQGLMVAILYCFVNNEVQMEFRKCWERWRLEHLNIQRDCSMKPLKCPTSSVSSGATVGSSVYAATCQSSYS

[3] = target: human glucagon-like peptide 1 receptor (GLP-1R) (human, UniProt P43220 24-463)
[4] = target: human glucagon receptor (Glucagon-R) (human, UniProt P47871 26-477)
Sequence of human glucagon receptor (Glucagon-R) (P47871 26-477): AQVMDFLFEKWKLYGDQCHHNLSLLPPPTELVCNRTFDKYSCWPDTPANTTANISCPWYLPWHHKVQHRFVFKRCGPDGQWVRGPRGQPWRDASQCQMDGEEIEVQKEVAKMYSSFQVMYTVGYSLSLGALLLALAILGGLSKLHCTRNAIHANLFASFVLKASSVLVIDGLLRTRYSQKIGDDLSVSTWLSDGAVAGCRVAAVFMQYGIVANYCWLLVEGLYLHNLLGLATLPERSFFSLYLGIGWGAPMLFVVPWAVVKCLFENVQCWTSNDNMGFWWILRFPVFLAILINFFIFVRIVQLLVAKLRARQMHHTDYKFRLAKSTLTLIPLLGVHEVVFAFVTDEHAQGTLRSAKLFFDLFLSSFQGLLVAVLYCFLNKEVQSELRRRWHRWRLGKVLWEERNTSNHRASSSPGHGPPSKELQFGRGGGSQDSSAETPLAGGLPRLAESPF

Sequence of endogenous glucagon receptor of primary rat hepatocytes (P30082 27-485): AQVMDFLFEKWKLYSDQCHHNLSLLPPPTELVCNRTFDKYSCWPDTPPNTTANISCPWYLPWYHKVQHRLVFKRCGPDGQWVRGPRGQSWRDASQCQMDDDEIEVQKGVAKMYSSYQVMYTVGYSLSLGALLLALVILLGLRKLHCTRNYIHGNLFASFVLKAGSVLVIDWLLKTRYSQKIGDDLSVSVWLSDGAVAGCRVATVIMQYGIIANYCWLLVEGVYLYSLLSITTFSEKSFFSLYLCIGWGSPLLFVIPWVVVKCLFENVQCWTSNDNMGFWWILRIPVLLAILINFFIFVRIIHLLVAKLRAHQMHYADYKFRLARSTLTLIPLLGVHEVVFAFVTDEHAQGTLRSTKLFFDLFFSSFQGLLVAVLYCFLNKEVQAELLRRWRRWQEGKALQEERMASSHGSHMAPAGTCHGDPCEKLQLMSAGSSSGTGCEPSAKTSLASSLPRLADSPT

EC50 GLP-1R Rat hepat. [nM] (inhibition of glycogen synthesis) [1]: 1.1 nM
EC50 GLP-1R (murine insulinoma cells) [nM] (cAMP) [2]: 0.95 nM
EC50 hGLP-1R CHO-K1 [nM] (cAMP) [3]: 0.41 nM
Ratio GLP-1/Glucagon (EC50 hGLP-1R / EC50 hGCGR) [3]: 1.41 ratio
EC50 hGCGR CHO-K1 [nM] (cAMP) [4]: 0.29 nM
B1: Compound 8 (peptide)
peptide: H-HSQGTFTSDYSKYLDSK([γGlu-Palmitoyl])AAHDFVEWLLS-NH2
SMILES: CCCCCCCCCCCCCCCC(=O)N[C@@H](CCC(=O)NCCCC[C@H](NC(=O)[C@H](CO)NC(=O)[C@H](CC(=O)O)NC(=O)[C@H](CC(C)C)NC(=O)[C@H](Cc1ccc(O)cc1)NC(=O)[C@H](CCCCN)NC(=O)[C@H](CO)NC(=O)[C@H](Cc1ccc(O)cc1)NC(=O)[C@H](CC(=O)O)NC(=O)[C@H](CO)NC(=O)[C@@H](NC(=O)[C@H](Cc1ccccc1)NC(=O)[C@@H](NC(=O)CNC(=O)[C@H](CCC(N)=O)NC(=O)[C@H](CO)NC(=O)[C@@H](N)Cc1c[nH]cn1)[C@@H](C)O)[C@@H](C)O)C(=O)N[C@@H](C)C(=O)N[C@@H](C)C(=O)N[C@@H](Cc1c[nH]cn1)C(=O)N[C@@H](CC(=O)O)C(=O)N[C@@H](Cc1ccccc1)C(=O)N[C@H](C(=O)N[C@@H](CCC(=O)O)C(=O)N[C@@H](Cc1c[nH]c2ccccc12)C(=O)N[C@@H](CC(C)C)C(=O)N[C@@H](CC(C)C)C(=O)N[C@@H](CO)C(N)=O)C(C)C)C(=O)O

EC50 GLP-1R Rat hepat. [nM] (inhibition of glycogen synthesis) [1]: 1.92 nM
EC50 GLP-1R (murine insulinoma cells) [nM] (cAMP) [2]: 0.84 nM
EC50 hGLP-1R CHO-K1 [nM] (cAMP) [3]: 0.27 nM
Ratio GLP-1/Glucagon (EC50 hGLP-1R / EC50 hGCGR) [3]: 0.6 ratio
EC50 hGCGR CHO-K1 [nM] (cAMP) [4]: 0.45 nM
B2: Compound 7 (peptide)
peptide: H-HSQGTFTSDYSKYLDSK([γGlu-Palmitoyl])AAEDFVEWLLRA-NH2
SMILES: CCCCCCCCCCCCCCCC(=O)N[C@@H](CCC(=O)NCCCC[C@H](NC(=O)[C@H](CO)NC(=O)[C@H](CC(=O)O)NC(=O)[C@H](CC(C)C)NC(=O)[C@H](Cc1ccc(O)cc1)NC(=O)[C@H](CCCCN)NC(=O)[C@H](CO)NC(=O)[C@H](Cc1ccc(O)cc1)NC(=O)[C@H](CC(=O)O)NC(=O)[C@H](CO)NC(=O)[C@@H](NC(=O)[C@H](Cc1ccccc1)NC(=O)[C@@H](NC(=O)CNC(=O)[C@H](CCC(N)=O)NC(=O)[C@H](CO)NC(=O)[C@@H](N)Cc1c[nH]cn1)[C@@H](C)O)[C@@H](C)O)C(=O)N[C@@H](C)C(=O)N[C@@H](C)C(=O)N[C@@H](CCC(=O)O)C(=O)N[C@@H](CC(=O)O)C(=O)N[C@@H](Cc1ccccc1)C(=O)N[C@H](C(=O)N[C@@H](CCC(=O)O)C(=O)N[C@@H](Cc1c[nH]c2ccccc12)C(=O)N[C@@H](CC(C)C)C(=O)N[C@@H](CC(C)C)C(=O)N[C@@H](CCCNC(=N)N)C(=O)N[C@@H](C)C(N)=O)C(C)C)C(=O)O

EC50 GLP-1R Rat hepat. [nM] (inhibition of glycogen synthesis) [1]: 0.67 nM
EC50 GLP-1R (murine insulinoma cells) [nM] (cAMP) [2]: 1.06 nM
EC50 hGLP-1R CHO-K1 [nM] (cAMP) [3]: 0.51 nM
Ratio GLP-1/Glucagon (EC50 hGLP-1R / EC50 hGCGR) [3]: 0.52 ratio
EC50 hGCGR CHO-K1 [nM] (cAMP) [4]: 0.98 nM
Binder: HXQGTFTSDYSKYLDSXAAHDFVEWLLSA (Aib at position 2; Lys 17 K(Hexadecanoyl-isoGlu); C-terminal -OH) [Compound 13]

EC50 GLP-1R Rat hepat. [nM] (inhibition of glycogen synthesis) [1]: 0.04 nM
EC50 GLP-1R (murine insulinoma cells) [nM] (cAMP) [2]: 0.33 nM
EC50 hGLP-1R CHO-K1 [nM] (cAMP) [3]: 0.23 nM
Ratio GLP-1/Glucagon (EC50 hGLP-1R / EC50 hGCGR) [3]: 1 ratio
EC50 hGCGR CHO-K1 [nM] (cAMP) [4]: 0.23 nM
B3: Compound 10 (peptide)
peptide: H-HSQGTFTSDYSKYLDEK([γGlu-Palmitoyl])AAHEFVEWLESA-NH2
SMILES: CCCCCCCCCCCCCCCC(=O)N[C@@H](CCC(=O)NCCCC[C@H](NC(=O)[C@H](CCC(=O)O)NC(=O)[C@H](CC(=O)O)NC(=O)[C@H](CC(C)C)NC(=O)[C@H](Cc1ccc(O)cc1)NC(=O)[C@H](CCCCN)NC(=O)[C@H](CO)NC(=O)[C@H](Cc1ccc(O)cc1)NC(=O)[C@H](CC(=O)O)NC(=O)[C@H](CO)NC(=O)[C@@H](NC(=O)[C@H](Cc1ccccc1)NC(=O)[C@@H](NC(=O)CNC(=O)[C@H](CCC(N)=O)NC(=O)[C@H](CO)NC(=O)[C@@H](N)Cc1c[nH]cn1)[C@@H](C)O)[C@@H](C)O)C(=O)N[C@@H](C)C(=O)N[C@@H](C)C(=O)N[C@@H](Cc1c[nH]cn1)C(=O)N[C@@H](CCC(=O)O)C(=O)N[C@@H](Cc1ccccc1)C(=O)N[C@H](C(=O)N[C@@H](CCC(=O)O)C(=O)N[C@@H](Cc1c[nH]c2ccccc12)C(=O)N[C@@H](CC(C)C)C(=O)N[C@@H](CCC(=O)O)C(=O)N[C@@H](CO)C(=O)N[C@@H](C)C(N)=O)C(C)C)C(=O)O

EC50 GLP-1R Rat hepat. [nM] (inhibition of glycogen synthesis) [1]: 0.37 nM
EC50 GLP-1R (murine insulinoma cells) [nM] (cAMP) [2]: 1.02 nM
EC50 hGLP-1R CHO-K1 [nM] (cAMP) [3]: 0.35 nM
Ratio GLP-1/Glucagon (EC50 hGLP-1R / EC50 hGCGR) [3]: 1.4 ratio
EC50 hGCGR CHO-K1 [nM] (cAMP) [4]: 0.25 nM
B4: Compound 9 (peptide)
peptide: H-HSQGTFTSDYSKYLDSK([γGlu-Palmitoyl])AAHDFVEWLLR-OH
SMILES: CCCCCCCCCCCCCCCC(=O)N[C@@H](CCC(=O)NCCCC[C@H](NC(=O)[C@H](CO)NC(=O)[C@H](CC(=O)O)NC(=O)[C@H](CC(C)C)NC(=O)[C@H](Cc1ccc(O)cc1)NC(=O)[C@H](CCCCN)NC(=O)[C@H](CO)NC(=O)[C@H](Cc1ccc(O)cc1)NC(=O)[C@H](CC(=O)O)NC(=O)[C@H](CO)NC(=O)[C@@H](NC(=O)[C@H](Cc1ccccc1)NC(=O)[C@@H](NC(=O)CNC(=O)[C@H](CCC(N)=O)NC(=O)[C@H](CO)NC(=O)[C@@H](N)Cc1c[nH]cn1)[C@@H](C)O)[C@@H](C)O)C(=O)N[C@@H](C)C(=O)N[C@@H](C)C(=O)N[C@@H](Cc1c[nH]cn1)C(=O)N[C@@H](CC(=O)O)C(=O)N[C@@H](Cc1ccccc1)C(=O)N[C@H](C(=O)N[C@@H](CCC(=O)O)C(=O)N[C@@H](Cc1c[nH]c2ccccc12)C(=O)N[C@@H](CC(C)C)C(=O)N[C@@H](CC(C)C)C(=O)N[C@@H](CCCNC(=N)N)C(=O)O)C(C)C)C(=O)O

EC50 GLP-1R Rat hepat. [nM] (inhibition of glycogen synthesis) [1]: 0.24 nM
EC50 GLP-1R (murine insulinoma cells) [nM] (cAMP) [2]: 1.62 nM
EC50 hGLP-1R CHO-K1 [nM] (cAMP) [3]: 0.37 nM
Ratio GLP-1/Glucagon (EC50 hGLP-1R / EC50 hGCGR) [3]: 0.86 ratio
EC50 hGCGR CHO-K1 [nM] (cAMP) [4]: 0.43 nM
B5: Compound 12 (peptide)
peptide: H-HSQGTFTSDYSRYLDSK([γGlu-Palmitoyl])AAHDFVEWLLSA-NH2
SMILES: CCCCCCCCCCCCCCCC(=O)N[C@@H](CCC(=O)NCCCC[C@H](NC(=O)[C@H](CO)NC(=O)[C@H](CC(=O)O)NC(=O)[C@H](CC(C)C)NC(=O)[C@H](Cc1ccc(O)cc1)NC(=O)[C@H](CCCNC(=N)N)NC(=O)[C@H](CO)NC(=O)[C@H](Cc1ccc(O)cc1)NC(=O)[C@H](CC(=O)O)NC(=O)[C@H](CO)NC(=O)[C@@H](NC(=O)[C@H](Cc1ccccc1)NC(=O)[C@@H](NC(=O)CNC(=O)[C@H](CCC(N)=O)NC(=O)[C@H](CO)NC(=O)[C@@H](N)Cc1c[nH]cn1)[C@@H](C)O)[C@@H](C)O)C(=O)N[C@@H](C)C(=O)N[C@@H](C)C(=O)N[C@@H](Cc1c[nH]cn1)C(=O)N[C@@H](CC(=O)O)C(=O)N[C@@H](Cc1ccccc1)C(=O)N[C@H](C(=O)N[C@@H](CCC(=O)O)C(=O)N[C@@H](Cc1c[nH]c2ccccc12)C(=O)N[C@@H](CC(C)C)C(=O)N[C@@H](CC(C)C)C(=O)N[C@@H](CO)C(=O)N[C@@H](C)C(N)=O)C(C)C)C(=O)O
